Measurements: the Immune Epitope Database (IEDB)

Experiments:
Settings in all cases: source organism: Cryptosporidium parvum Iowa II
HLA-C*12:03 = test: IEDB peptide-MHC binding, purified MHC/direct/fluorescence; filed as Kd, often an IC50 or EC50 that approximates it; ≥ and ≤ were set here for values at or beyond the usual limits of such assays
HLA-B*51:01 = test: IEDB peptide-MHC binding, purified MHC/competitive/fluorescence; filed as Kd, often an IC50 or EC50 that approximates it; ≥ and ≤ were set here for values at or beyond the usual limits of such assays
HLA-B*08:01 = test: as above
HLA-A*26:01 = test: as above
HLA-A*30:01 = test: as above
HLA-A*24:03 = test: as above
HLA-B*44:02 = test: as above
HLA-B*53:01 = test: as above
HLA-B*39:01 = test: as above
HLA-A*29:02 = test: as above
HLA-B*27:03 = test: as above
HLA-A*03:01 = test: as above
HLA-A*30:02 = test: as above
HLA-B*46:01 = test: as above
HLA-B*40:01 = test: as above
HLA-A*66:01 = test: as above
HLA-B*14:02 = test: as above
HLA-A*23:01 = test: as above
HLA-B*18:01 = test: as above
HLA-A*68:02 = test: as above
HLA-B*07:02 = test: as above
HLA-B*15:01 = test: as above
HLA-A*11:01 = test: as above
HLA-B*27:05 = test: as above
HLA-A*01:01 = test: as above

Sequence: FTWQHNYYL
- Kd (HLA-C*12:03): 0.335 µM
- Kd (HLA-B*51:01): ≥ 20 µM
- Kd (HLA-B*08:01): ≥ 5 µM
- Kd (HLA-A*26:01): ≥ 20 µM
- Kd (HLA-A*30:01): ≥ 5 µM
- Kd (HLA-A*24:03): 0.041 µM
- Kd (HLA-B*44:02): ≥ 5 µM
- Kd (HLA-B*53:01): ≥ 5 µM
- Kd (HLA-B*39:01): ≥ 20 µM
- Kd (HLA-A*29:02): 0.0509 µM
- Kd (HLA-B*27:03): ≥ 20 µM
- Kd (HLA-A*03:01): ≥ 20 µM
- Kd (HLA-A*30:02): ≥ 5 µM
- Kd (HLA-B*46:01): ≥ 20 µM
- Kd (HLA-B*40:01): ≥ 5 µM
- Kd (HLA-A*66:01): ≥ 5 µM
- Kd (HLA-B*14:02): ≥ 20 µM
- Kd (HLA-A*23:01): 0.149 µM
- Kd (HLA-B*18:01): ≥ 20 µM
- Kd (HLA-A*68:02): ≤ 0.001 µM
- Kd (HLA-B*07:02): ≥ 5 µM
- Kd (HLA-B*15:01): ≥ 20 µM
- Kd (HLA-A*11:01): ≥ 5 µM
- Kd (HLA-B*27:05): ≥ 5 µM
- Kd (HLA-A*01:01): 0.463 µM
